Source: patent US6509445 (NISSIN FOOD PRODUCTS, dated 2003)
Values belong to the binder of their own block, whether it stands above or below them.

Target: urokinase receptor (uPAR) (human, UniProt Q03405 23-305)
Assay: cell-based or functional assay

Sequence of urokinase receptor (uPAR) (Q03405 23-305): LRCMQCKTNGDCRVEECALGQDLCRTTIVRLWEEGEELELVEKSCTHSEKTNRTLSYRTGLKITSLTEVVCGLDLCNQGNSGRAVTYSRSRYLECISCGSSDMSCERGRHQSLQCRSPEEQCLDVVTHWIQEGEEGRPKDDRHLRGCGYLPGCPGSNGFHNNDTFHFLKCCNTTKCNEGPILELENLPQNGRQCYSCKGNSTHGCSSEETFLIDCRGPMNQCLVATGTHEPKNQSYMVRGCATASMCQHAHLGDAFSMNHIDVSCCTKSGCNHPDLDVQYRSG

- Invasion inhibitory effect ID50 (nM), A375 cells: 100 nM
- Invasion inhibitory effect ID50 (nM), DU-145 cells: 5 nM
- Invasion inhibitory effect ID50 (nM), GE0 cells: 200 nM
- Invasion inhibitory effect ID50 (nM), H0C-I cells: 20 nM
- Invasion inhibitory effect ID50 (nM), MDA-MB-435 cells: 20 nM
- Invasion inhibitory effect ID50 (nM), PC-3 cells: 20 nM
- Invasion inhibitory effect ID50 (nM), SMT-ccl cells: 1 nM
B1: chimeric protein ATFHI-CL (other)
chain: MSNELHQVPSNCDCLNGGTCVSNKYFSNIHWCNCPKKFGGQHCEIDKSKTCYEGNGHFYRGKASTDTMGRPCLPWNSATVLQQTYHAHRSDALQLGLGKHNYCRNPDNRRRPWCYVQVGLKPLVQECMVHDCADGTVAACNLPIVRGPCRAFIQLWAFDAVKGKCVLFPYGGCQGNGNKFYSEKECREYCGVPGDGDEELL

- Invasion inhibitory effect ID50 (nM), A375 cells: 120 nM
- Invasion inhibitory effect ID50 (nM), DU-145 cells: 2.9 nM
- Invasion inhibitory effect ID50 (nM), GE0 cells: 20 nM
- Invasion inhibitory effect ID50 (nM), H0C-I cells: 50 nM
- Invasion inhibitory effect ID50 (nM), MDA-MB-435 cells: 5.6 nM
- Invasion inhibitory effect ID50 (nM), PC-3 cells: 50 nM
- Invasion inhibitory effect ID50 (nM), SMT-ccl cells: 10 nM
B2: chimeric protein ATFHI-ML (other)
chain: MSNELHQVPSNCDCLNGGTCVSNKYFSNIHWCNCPKKFGGQHCEIDKSKTCYEGNGHFYRGKASTDTMGRPCLPWNSATVLQQTYHAHRSDALQLGLGKHNYCRNPDNRRRPWCYVQVGLKPLVQECMVHDCADGKKPSSPPEELKFQGTVAACNLPIVRGPCRAFIQLWAFDAVKGKCVLFPYGGCQGNGNKFYSEKECREYCGVPG

- Invasion inhibitory effect ID50 (nM), A375 cells: 50 nM
- Invasion inhibitory effect ID50 (nM), DU-145 cells: 0.5 nM
- Invasion inhibitory effect ID50 (nM), GE0 cells: 110 nM
- Invasion inhibitory effect ID50 (nM), H0C-I cells: 10 nM
- Invasion inhibitory effect ID50 (nM), MDA-MB-435 cells: 3.5 nM
- Invasion inhibitory effect ID50 (nM), PC-3 cells: 20 nM
- Invasion inhibitory effect ID50 (nM), SMT-ccl cells: 1.2 nM
B3: chimeric protein ATFHI (other)
chain: MSNELHQVPSNCDCLNGGTCVSNKYFSNIHWCNCPKKFGGQHCEIDKSKTCYEGNGHFYRGKASTDTMGRPCLPWNSATVLQQTYHAHRSDALQLGLGKHNYCRNPDNRRRPWCYVQVGLKPLVQECMVHDCADGTVAACNLPIVRGPCRAFIQLWAFDAVKGKCVLFPYGGCQGNGNKFYSEKECREYCGVPG
